Test results: publication PMC5749897 (PLoS Pathogens, 2017)

Target: T1, wild-type HCV E1E2 (genotype 1a, strain H77) expression construct with C-terminal V5 epitope tag (Hepatitis C virus genotype 1a, strain …, strain)
T1 construct: also called wild-type E1E2; E1E2 complex; source: HEK-293T, transfected, in fixed and permeabilised cells; not shown: V5, C-terminal, kept
Test: flow cytometry on cells; E1E2 library clones in HEK-293T, 22 h, fixed in 4% paraformaldehyde, permeabilised with 0.1% saponin; stained with mAb (0.33 to 2.0 ug/ml) or CD81-LEL-Fc, Alexa Fluor 488 secondary antibody; Intellicyt HTFC; signal as percent of wild-type E1E2 after subtraction of mock
Conditions: one partner purified

B1: monoclonal antibody AR3C (antibody, V domains shown)
VH: VQLLEQSGAEVKKPGSSVKVSCETSGGTFDNYALNWVRQAPGQGLEWIGGVVPLFGTTRNAQKFQGRVTISDDKSTGTGHMELRSLRSEDTAVYYCVRSVTPRYCGGGFCYGEFDYWGQGTLVTVSS
VL: EIELTQSPATLSVSPGERATLSCRASQSVSSNLAWYQQKPGQAPRLLIYGASTRATGIPARFSGSGSGTEFTLTVSRLEPEDSAVYFCQQYYRSPLTFGGGTKVEIK
notes: also called mAb AR3C
binding result: binds
